From doi:10.1101/2025.10.14.682297 (bioRxiv, 2025)

Target: the molecule itself
Assay: cryo-EM structure

B1: human ZNFX1 (NFX1-type zinc finger-containing 1), full-length, 2xStrep-tagged, wild type (enzyme, UniProt Q9P2E3 1-1918, looked up)
chain: MEERRPHLDARPRNSHTNHRGPVDGELPPRARNQANNPPANALRGGASHPGRHPRANNHPAAYWQREERFRAMGRNPHQGRRNQEGHASDEARDQRHDQENDTRWRNGNQDCRNRRPPWSNDNFQQWRTPHQKPTEQPQQAKKLGYKFLESLLQKDPSEVVITLATSLGLKELLSHSSMKSNFLELICQVLRKACSSKMDRQSVLHVLGILKNSKFLKVCLPAYVVGMITEPIPDIRNQYPEHISNIISLLQDLVSVFPASSVQETSMLVSLLPTSLNALRASGVDIEEETEKNLEKVQTIIEHLQEKRREGTLRVDTYTLVQPEAEDHVESYRTMPIYPTYNEVHLDERPFLRPNIISGKYDSTAIYLDTHFRLLREDFVRPLREGILELLQSFEDQGLRKRKFDDIRIYFDTRIITPMCSSSGIVYKVQFDTKPLKFVRWQNSKRLLYGSLVCMSKDNFETFLFATVSNREQEDLCRGIVQLCFNEQSQQLLAEVQPSDSFLMVETTAYFEAYRHVLEGLQEVQEEDVPFQRNIVECNSHVKEPRYLLMGGRYDFTPLIENPSATGEFLRNVEGLRHPRINVLDPGQWPSKEALKLDDSQMEALQFALTRELAIIQGPPGTGKTYVGLKIVQALLTNESVWQISLQKFPILVVCYTNHALDQFLEGIYNCQKTSIVRVGGRSNSEILKQFTLRELRNKREFRRNLPMHLRRAYMSIMTQMKESEQELHEGAKTLECTMRGVLREQYLQKYISPQHWESLMNGPVQDSEWICFQHWKHSMMLEWLGLGVGSFTQSVSPAGPENTAQAEGDEEEEGEEESSLIEIAEEADLIQADRVIEEEEVVRPQRRKKEESGADQELAKMLLAMRLDHCGTGTAAGQEQATGEWQTQRNQKKKMKKRVKDELRKLNTMTAAEANEIEDVWQLDLSSRWQLYRLWLQLYQADTRRKILSYERQYRTSAERMAELRLQEDLHILKDAQVVGMTTTGAAKYRQILQKVEPRIVIVEEAAEVLEAHTIATLSKACQHLILIGDHQQLRPSANVYDLAKNFNLEVSLFERLVKVNIPFVRLNYQHRMCPEIARLLTPHIYQDLENHPSVLKYEKIKGVSSNLFFVEHNFPEQEIQEGKSHQNQHEAHFVVELCKYFLCQEYLPSQITILTTYTGQLFCLRKLMPAKTFAGVRVHVVDKYQGEENDIILLSLVRSNQEGKVGFLQISNRICVALSRAKKGMYCIGNMQMLAKVPLWSKIIHTLRENNQIGPMLRLCCQNHPETHTLVSKASDFQKVPEGGCSLPCEFRLGCGHVCTRACHPYDSSHKEFQCMKPCQKVICQEGHRCPLVCFQECQPCQVKVPKTIPRCGHEQMVPCSVPESDFCCQEPCSKSLRCGHRCSHPCGEDCVQLCSEMVTIKLKCGHSQPVKCGHVEGLLYGGLLVKCTTKCGTILDCGHPCPGSCHSCFEGRFHERCQQPCKRLLICSHKCQEPCIGECPPCQRTCQNRCVHSQCKKKCGELCSPCVEPCVWRCQHYQCTKLCSEPCNRPPCYVPCTKLLVCGHPCIGLCGEPCPKKCRICHMDEVTQIFFGFEDEPDARFVQLEDCSHIFEVQALDRYMNEQKDDEVAIRLKVCPICQVPIRKNLRYGTSIKQRLEEIEIIKEKIQGSAGEIATSQERLKALLERKSLLHQLLPEDFLMLKEKLAQKNLSVKDLGLVENYISFYDHLASLWDSLKKMHVLEEKRVRTRLEQVHEWLAKKRLSFTSQELSDLRSEIQRLTYLVNLLTRYKIAEKKVKDSIAVEVYSVQNILEKTCKFTQEDEQLVQEKMEALKATLPCSGLGISEEERVQIVSAIGYPRGHWFKCRNGHIYVIGDCGGAMERGTCPDCKEVIGGTNHTLERSNQLASEMDGAQHAAWSDTANNLMNFEEIQGMM
stoichiometry N: 2
